In article PMC4538830, “CTNNBL1 facilitates the association of CWC15 with CDC5L and is required to maintain the abundance of the Prp19 spliceosomal complex” (Nucleic Acids Research, 2015):
Values belong to the binder of their own block, whether it stands above or below them.

What was measured:
CWC15[80–229] = biological target: T1, CWC15[80–229] (human, UniProt Q9P013 80-229); assay: SEC-MALS; mixture of purified His-CTNNBL1[77–563], CDC5L[1–195] and CWC15[80–229]; details: both partners purified
T1 construct: Tag cleaved off by HRV 3C protease for gel filtration, crosslinking and HDX; source: E. coli BL21 Rosetta (DE3)pLysS, purified (Glutathione-Sepharose 4B, HRV 3C cleavage, Resource Q)
T1 sequence (looked up): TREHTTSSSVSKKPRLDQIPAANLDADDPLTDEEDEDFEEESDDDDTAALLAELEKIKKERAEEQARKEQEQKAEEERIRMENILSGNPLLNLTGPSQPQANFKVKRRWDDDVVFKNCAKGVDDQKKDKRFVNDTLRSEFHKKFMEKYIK

[1] = biological target: the molecule itself; assay: SEC-MALS; CTNNBL1 (full length or [77–563]) alone; also in high salt buffer (0.5 M NaCl) or with CWC15[80–229] added; Supplementary Figure S7
[2] = biological target: T2, full-length recombinant His tagged CTNNBL1 (human, UniProt Q8WYA6 1-563); assay: pull-down; His-CTNNBL1 (full length or [77–563]) as bait on Ni-NTA resin; 10–20 μg of each purified protein in pull down buffer, 1 h at 4°C; eluates on SDS-PAGE, Instant Blue; details: both partners purified
T2 construct: Homotrimer when alone in solution by SEC-MALS (186 kDa); also called His-CTNNBL1; full-length CTNNBL1; source: E. coli BL21 Rosetta (DE3)pLysS, purified (Ni-NTA, Resource Q)
T2 sequence (looked up): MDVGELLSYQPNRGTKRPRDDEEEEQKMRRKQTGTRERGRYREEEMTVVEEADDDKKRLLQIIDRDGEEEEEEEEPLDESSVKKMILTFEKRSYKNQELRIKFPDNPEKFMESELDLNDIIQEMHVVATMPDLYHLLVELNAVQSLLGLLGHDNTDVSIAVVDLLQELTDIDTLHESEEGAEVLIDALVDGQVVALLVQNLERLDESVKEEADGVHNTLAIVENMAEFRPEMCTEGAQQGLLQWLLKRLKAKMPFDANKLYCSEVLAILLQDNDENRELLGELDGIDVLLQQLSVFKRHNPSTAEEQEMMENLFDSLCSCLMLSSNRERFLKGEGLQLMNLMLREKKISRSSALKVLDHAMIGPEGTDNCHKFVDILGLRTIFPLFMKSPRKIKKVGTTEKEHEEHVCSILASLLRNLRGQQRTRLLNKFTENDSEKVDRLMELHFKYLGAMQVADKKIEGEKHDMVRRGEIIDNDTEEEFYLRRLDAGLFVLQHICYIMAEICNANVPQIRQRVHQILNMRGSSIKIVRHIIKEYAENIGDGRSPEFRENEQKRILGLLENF

stoichiometry N (CWC15[80–229]): 1
B1: CDC5L[1–195] (domain or fragment, human, UniProt Q99459 1-195, looked up)
chain: MPRIMIKGGVWRNTEDEILKAAVMKYGKNQWSRIASLLHRKSAKQCKARWYEWLDPSIKKTEWSREEEEKLLHLAKLMPTQWRTIAPIIGRTAAQCLEHYEFLLDKAAQRDNEEETTDDPRKLKPGEIDPNPETKPARPDPIDMDEDELEMLSEARARLANTQGKKAKRKAREKQLEEARRLAALQKRRELRAAG
notes: Tag cleaved off by TEV protease for gel filtration, crosslinking and HDX; source: E. coli BL21 Rosetta (DE3)pLysS, purified (amylose resin, TEV cleavage, Resource S)

B2: His-CTNNBL1[77–563] (domain or fragment, human, UniProt Q8WYA6 77-563, looked up)
chain: LDESSVKKMILTFEKRSYKNQELRIKFPDNPEKFMESELDLNDIIQEMHVVATMPDLYHLLVELNAVQSLLGLLGHDNTDVSIAVVDLLQELTDIDTLHESEEGAEVLIDALVDGQVVALLVQNLERLDESVKEEADGVHNTLAIVENMAEFRPEMCTEGAQQGLLQWLLKRLKAKMPFDANKLYCSEVLAILLQDNDENRELLGELDGIDVLLQQLSVFKRHNPSTAEEQEMMENLFDSLCSCLMLSSNRERFLKGEGLQLMNLMLREKKISRSSALKVLDHAMIGPEGTDNCHKFVDILGLRTIFPLFMKSPRKIKKVGTTEKEHEEHVCSILASLLRNLRGQQRTRLLNKFTENDSEKVDRLMELHFKYLGAMQVADKKIEGEKHDMVRRGEIIDNDTEEEFYLRRLDAGLFVLQHICYIMAEICNANVPQIRQRVHQILNMRGSSIKIVRHIIKEYAENIGDGRSPEFRENEQKRILGLLENF
notes: Homotrimer when alone in solution by SEC-MALS (165 kDa); also called N-terminal truncation mutant of CTNNBL1; source: E. coli BL21 Rosetta (DE3)pLysS, purified (Ni-NTA, Resource Q)
stoichiometry N [1]: 3

binding result [2]: binds
B3: full-length GST-CWC15 (natural protein, human, UniProt Q9P013 1-229, looked up)
chain: MTTAARPTFEPARGGRGKGEGDLSQLSKQYSSRDLPSHTKIKYRQTTQDAPEEVRNRDFRRELEERERAAAREKNRDRPTREHTTSSSVSKKPRLDQIPAANLDADDPLTDEEDEDFEEESDDDDTAALLAELEKIKKERAEEQARKEQEQKAEEERIRMENILSGNPLLNLTGPSQPQANFKVKRRWDDDVVFKNCAKGVDDQKKDKRFVNDTLRSEFHKKFMEKYIK
notes: source: E. coli BL21 Rosetta (DE3)pLysS, purified (Glutathione-Sepharose 4B)
